From publication PMC3008307 (Virology, 2010)

B1: GST-cyclin C (natural protein, human, UniProt P24863 1-283, looked up)
chain: MAGNFWQSSHYLQWILDKQDLLKERQKDLKFLSEEEYWKLQIFFTNVIQALGEHLKLRQQVIATATVYFKRFYARYSLKSIDPVLMAPTCVFLASKVEEFGVVSNTRLIAAATSVLKTRFSYAFPKEFPYRMNHILECEFYLLELMDCCLIVYHPYRPLLQYVQDMGQEDMLLPLAWRIVNDTYRTDLCLLYPPFMIALACLHVACVVQQKDARQWFAELSVDMEKILEIIRVILKLYEQWKNFDERKEMATILSKMPKPKPPPNSEGEQGPNGSQNSSYSQS
B2: GST-rv-cyclin (natural protein)
chain: MDIPVEFLTAQEPLSYGHIPPVYWKELLNWIDRILTHNQATPNTWEATHMVLLKLHGTLSFSNPAQLPLVAAACLQIAAKHTEAHSRLADPDYITMLGDGVYTKPSLLLTETMALFIVGGHVGAYTLAACDWLLGSLPFSQAENDLLHPYMYHYIKLSYRHRTPDYHSSPALRAAVVIAAAVKGADLLEMNMLFIMMYHLTHISTASLSLGLTHFTAALQRQINLDFAEAEQREAAERRALLEREREQQLQEARERLDDVMAVLEAEVAITITTATEGTDAEDTSEVDVINVVDPIG

What was measured:
[1] = molecular target: 6-His-cdk8 (human, UniProt P49336 1-464); experiment: pull-down
[2] = molecular target: 6-His-cdk3 (human, UniProt Q00526 1-305); experiment: pull-down
6-His-cdk3, sequence (Q00526 whole entry): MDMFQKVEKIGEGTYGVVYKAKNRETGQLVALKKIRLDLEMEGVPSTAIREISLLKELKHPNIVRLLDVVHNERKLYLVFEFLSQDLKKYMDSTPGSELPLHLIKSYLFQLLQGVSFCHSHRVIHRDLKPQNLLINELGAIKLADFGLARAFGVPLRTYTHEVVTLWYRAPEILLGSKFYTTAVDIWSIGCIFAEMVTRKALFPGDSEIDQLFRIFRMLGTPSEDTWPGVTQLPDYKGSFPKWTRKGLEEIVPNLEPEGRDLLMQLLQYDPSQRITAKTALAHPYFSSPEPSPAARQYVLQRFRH

6-His-cdk8, sequence (P49336 whole entry): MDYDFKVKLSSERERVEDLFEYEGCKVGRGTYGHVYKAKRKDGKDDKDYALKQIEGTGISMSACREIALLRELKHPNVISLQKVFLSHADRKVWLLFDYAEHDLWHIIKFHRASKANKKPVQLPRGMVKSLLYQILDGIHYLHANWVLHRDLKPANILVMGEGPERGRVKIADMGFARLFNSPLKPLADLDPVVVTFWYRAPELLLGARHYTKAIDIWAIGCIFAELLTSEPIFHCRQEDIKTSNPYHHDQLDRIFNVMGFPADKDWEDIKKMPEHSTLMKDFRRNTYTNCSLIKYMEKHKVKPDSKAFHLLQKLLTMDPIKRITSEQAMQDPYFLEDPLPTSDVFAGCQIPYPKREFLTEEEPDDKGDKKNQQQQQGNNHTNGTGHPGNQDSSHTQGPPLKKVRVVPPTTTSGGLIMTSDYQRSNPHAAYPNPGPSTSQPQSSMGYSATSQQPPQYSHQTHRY

Binder	binding result [1]	binding result [2]
B1	binds	binds
B2	binds	binds
